# Test results from the supplement of paper PMC12764529.
# ± gives the half width of the 95% confidence interval.
# Assay: folding stability dG unfold from chymotrypsin proteolysis; higher = more stable
# Summary of the method: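 Only designs with AlphaFold2 dimer inter-PAE above 15 were retained; each was a mini-protein under 80 residues with no cysteine, in a PA-tagged cDNA display construct. After digestion with trypsin and chymotrypsin and sequencing, K50 was inferred by Bayesian fitting of counts, and unfolding free energy was derived per protease or combined against a sequence-predicted unfolded-state K50 and a shared folded-state K50.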
row,Sequence,folding stability dG unfold [kJ/mol]
1,SAGDAVRIPIRFPNGMQIYSIEINPDENTIKIKIYDPNGYRKFEWTFPVKDPNGDPKLVGKIKFYMRPPSAG [r5_434_TrROS],10.9 ± 0.669
2,SAGGGGSTPVSSYSYPLPDGSTATITISSKNPDSDIYSFTVTLSDGTTVPLDVPLSESVEEAIARVLTSAGG [r13_470_JUSTAS],9.15 ± 0.318
3,EEWYIIQIKIEYWGPNGKEREIDIMVLIPPEQMTPDQLKQVKEIAREIAENLQENGYNIEINVEIIPLDDMS [r1_221_TrROS],16.3 ± 0.962
4,SAGGSAGGSAGGSMSTVFVSTLTLPDPSGLSTVLTTTVEIDPEGNAHPVTSTEEVSAAASAGGSAGGSAGGS [r4_80_JUSTAS],1.38 ± 0.372
5,SAGGKIKIKSVEVQPNPDGMRKVTLEFQDGGKEHKVEIYVHPGGIMISIPNGKTRTIPWDDLDDIKLSAGGS [r16_593_TrROS],5.08 ± 0.628
6,SAGGSAGGSAMPFRVKVPPGSRVLVTRYLPGGLEREEVELSEDEDELVVEAESGVVEVRVLDSAGGSAGGSA [r18_124_TrMRF],4.05 ± 1.17
7,SAGGSAGGSAGMTITLPNGAEITSIEINEDGTITITVRVNGKTLTLTITVTLPPPPPEEPSAGGSAGGSAGG [r17_421_TrROS_Hall],14.8 ± 0.669
8,SAGGSAGGSPVLIPVKTPEEIKKFLEKASSDAKFKVFNNKGEWKEVSKNEISVTPEEQFILVYSAGGSAGGS [r12_907_TrMRF],2.77 ± 0.586
9,SAGGGSMEVVKEEVSEEVEVLPNGTVLTTKTITYKTPDGKEYTETVLERVDPVTGKREVIEKKTYPSSAGGS [r16_50_JUSTAS],11 ± 0.188
10,SAGEKKIKIEIKEIKPHENGYLSIKAKAYLEDGKKVAEVYEPYPPNLSLEELIEKVIERLEKEVKEKGESAG [r5_697_TrMRF],-0.866 ± 0.753
11,SAGGKPAKPTRLDFPDDDVKTVPANTKIILTRPDGSKLVIELPEEEFTAKPDEWVFETPTSKITFPIASAGG [r13_643_TrMRF],2.75 ± 0.628
12,SAGGEYTVVSVLEERKDPATGKTVTLELLKDPNSNVLYRRVTTTDPANPDVVTTTLYDAAGNKVSTVSSAGG [r13_658_JUSTAS],11 ± 0.23
13,SAGGSAGGMVTVPVPKDKPLNPVATVKLPDGSTIPAGPVAVDLEKGTATLEVPEPAEVIVEVNPSAGGSAGG [r6_180_JUSTAS],5.68 ± 0.0962
14,SAGGSAGGSAGMKVTVTITYPGGKVTTLDGDPEEVKAALPSSLTDVKITVTDPATGKVAASAGGSAGGSAGG [r11_353_JUSTAS],3.51 ± 0.134
15,SAGGSAGGSAGGVPRLERFTLSPNGLPVRIFVDGDRALVVFEGPDGGLAVATFAVSDIPFSAGGSAGGSAGG [r7_653_TrMRF],6.76 ± 0.197
16,SAGGMVTIELREVSEEEALKLAEELPPNTLLIPFPFGNLVLPVRVPDDPEVREKVAEEIRKFLEALPSAGGS [r16_311_TrMRF],0.19 ± 0.795

row,Sequence,folding stability dG unfold [kJ/mol]
1,SAGNIMVQVEPDPGGTVKVEIMFMIPLPNGWPIMIQIEWEVRVDEDGEPELKMPIEIFFSEEALDKGFSAGG [r19_63_TrROS],8.33 ± 0.121
2,SAMMYLIRVTITVKNKETGEEKEIEVEILIEKEEGELTEEEIEELARKLAEELGLEVEEIKIEIEPLPESAG [r14_278_TrROS_Hall],22.1 ± 0.669
3,SMKITTDPVNKTISATFPPGTDPLAETQKIVDEVKKKENSGDITITFSTGNTTINYTLGTNTVTTTPAGTSA [r9_224_JUSTAS],-1.47 ± 0.795
4,SAGGSAGGSPVVAIRAKSREELLAALEALLPPGQKLTPEQRQQLVDTLLANLDVKPGDTILVRSAGGSAGGS [r12_983_TrROS_Hall],3.85 ± 0.142
5,SAGGSAGGSAGGPEVERFRIPGDNVLVEVVRLEDERIARITFPDGSQLTVPLPPGWEAFSAGGSAGGSAGGS [r10_976_TrMRF],3.56 ± 0.544
6,SAGGSAGGSAGGVDPTPDGILRVRVVIKDPNGDVFSEKEVEMTPEELEALKKAGYVILESAGGSAGGSAGGS [r10_749_JUSTAS],8.46 ± 0.0753
7,SAGGSAGGSLLEDIKKALEIIKPPPIPVKVKVKIEYDPEKGELKVEVEFFGIKLKVEGEFKIESAGGSAGGS [r20_230_TrMRF],14.2 ± 0.669
8,SAGGSAGGSFKDVPPGLKPLREEENVLFYQLPDGSYLVLVKEGDKIKKIKASKSTSIEEAIKKSAGGSAGGS [r12_605_JUSTAS],8.73 ± 0.172
9,SAGGSPLVLTSEVEKKFENSPDKTVEKYKIKVTVYDPKTGKKLKEIELEKTVEKGGNEKIEEPIILSAGGSA [r2_271_JUSTAS],2.04 ± 0.879
10,SAGGSAGPALEIAKALTELYGAEEVTILDVHPDGYVHLHVRAVDYDDGEPVERELDVIFPIAPDDGSAGGSA [r15_646_TrMRF],6.36 ± 0.155
11,SAGGKVKVVEIRYFPGTNTVEILVEDPGPYLATIRIPAAPDAPIEIDEDANFRVPDAPVVLGEVRPPSAGGS [r16_515_TrMRF],3.53 ± 0.502
12,SAGGSAGGSAGGSSSSASVEVKTETSVSYDPSTGRTYTTTTSKYPLTNTTVTTTTTDPTSAGGSAGGSAGGS [r10_187_JUSTAS],0.58 ± 0.628
13,SMKIEVSGGNVTVEMYMWRRKKERDPDDPGKERDQPEPMPQTHTIDPNDPEAAKKFLDKFPPGFRPEIHDSA [r9_476_TrROS],0.375 ± 1.8
14,SAGGSAGGSAKLEYDDDYVEIEFKVPDGPIMIYIPDWGWMIWIWPGKEVTIRFPIPKPPDNSAGGSAGGSAG [r3_185_TrROS],16.9 ± 1
15,SIWFSPGKKYKIDEIRFGGWEIEKFTAQVGPDGNIQIPMDIKPVKKPPPPPPVVRNPEDGKYYDPGDPKDSA [r9_603_TrROS],6.88 ± 1.05
16,SAGGSAGGDPNDKPMKFELIETFTIPGNLNEAKDFLEDLLPPNWAINVEQEPGMITITIYKMKDSAGGSAGG [r6_953_TrROS],9.33 ± 0.305
